# Laboratory results taken from paper PMC10042821, “Cryo-EM structure of human eIF5A-DHS complex reveals the molecular basis of hypusination-associated neurodegenerative disorders” (Nature Communications, 2023).
# Numbering of substitutions follows the chain as printed.
# B1: eukaryotic translation factor 5A-1 (eIF5A-1), residues 15-151 (domain or fragment)
# chain: not shown
# notes: eIF5A1 (eukaryotic translation factor 5A-1), human, residues 15-151, from pET28-MHL (Addgene); The general purification removes the His tag with TEV; A His-tagged eIF5A1 was used only in the hypusination assay; source: E. coli, purified (HisTrap, TEV cleavage, reverse HisTrap, SEC); not shown: His tag, N-terminal, cleaved
# Legend:
# Experiment in all cases: MST; Monolith NT.115; 8.32 nM His-tagged DHS labelled with RED-tris-NTA, eIF5A titrated 0.00175-57.5 uM; 50 mM Tris, 200 mM NaCl, 5 mM beta-ME pH 8; free buffer
# Settings in all cases: both partners purified
# [1] = target: T1, deoxyhypusine synthase W327A, His-tagged (human, UniProt P49366 1-369, W327A)
# T1 construct: deoxyhypusine synthase (DHS), Homo sapiens, UniProt P49366, residues 1-369; source: E. coli, purified; His-tagged protein labelled with RED-tris-NTA for MST; not shown: His6, N-terminal, kept
# T1 sequence (looked up): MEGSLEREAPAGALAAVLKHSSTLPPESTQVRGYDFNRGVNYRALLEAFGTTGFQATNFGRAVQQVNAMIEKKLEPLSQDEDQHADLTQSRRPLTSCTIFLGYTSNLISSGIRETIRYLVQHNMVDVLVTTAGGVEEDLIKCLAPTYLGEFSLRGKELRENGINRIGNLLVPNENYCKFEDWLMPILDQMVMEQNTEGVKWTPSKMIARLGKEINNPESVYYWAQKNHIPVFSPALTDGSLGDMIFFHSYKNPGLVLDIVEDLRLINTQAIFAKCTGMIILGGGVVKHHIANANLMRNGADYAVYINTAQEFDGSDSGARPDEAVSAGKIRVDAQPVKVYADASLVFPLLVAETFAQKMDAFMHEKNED
# [2] = target: T2, deoxyhypusine synthase, wild type, His-tagged (human, UniProt P49366 1-369)
# T2 construct: deoxyhypusine synthase (DHS), Homo sapiens, UniProt P49366, residues 1-369; N-terminal 6xHis-tag followed by a TEV site (pET24d); tag kept for the His-tag labelling in MST; also called DHS; DHS^wt; source: E. coli, purified; His-tagged protein labelled with RED-tris-NTA for MST; not shown: His6, N-terminal, kept
# T2 sequence (looked up): T1 sequence (looked up) with A327W
# [3] = target: T3, deoxyhypusine synthase N173S, patient-derived variant, His-tagged (human, UniProt P49366 1-369, N173S)
# T3 construct: deoxyhypusine synthase (DHS), Homo sapiens, UniProt P49366, residues 1-369, pathological variant N173S; also called DHS^N173S; source: E. coli, purified from the soluble fraction; His-tagged protein labelled with RED-tris-NTA for MST; not shown: His6, N-terminal, kept
# T3 sequence (looked up): T1 sequence (looked up) with N173S, A327W
# [4] = target: T4, deoxyhypusine synthase delY305_I306, patient-derived variant, His-tagged (human, UniProt P49366 1-369, delY305_I306)
# T4 construct: deoxyhypusine synthase (DHS), Homo sapiens, UniProt P49366, residues 1-369, pathological variant lacking Y305 and I306; Primarily dimeric by mass photometry; also called DHS^delY305_I306; DHS^del305Y_306I; source: E. coli, purified from the soluble fraction; His-tagged protein labelled with RED-tris-NTA for MST; not shown: His6, N-terminal, kept
# T4 sequence (looked up): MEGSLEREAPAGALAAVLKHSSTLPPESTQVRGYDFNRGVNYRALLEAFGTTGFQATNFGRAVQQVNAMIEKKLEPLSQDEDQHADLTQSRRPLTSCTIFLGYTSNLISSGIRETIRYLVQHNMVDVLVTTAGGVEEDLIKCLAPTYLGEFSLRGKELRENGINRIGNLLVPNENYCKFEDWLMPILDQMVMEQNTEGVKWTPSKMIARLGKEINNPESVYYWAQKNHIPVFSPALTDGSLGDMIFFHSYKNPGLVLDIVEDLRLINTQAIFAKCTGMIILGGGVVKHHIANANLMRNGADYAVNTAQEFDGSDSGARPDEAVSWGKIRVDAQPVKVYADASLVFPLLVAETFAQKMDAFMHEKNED
binder,measurement,setting,value
B1,Kd,[1],602 ± 284 nM
same,Kd,[2],33.8 ± 8.5 nM
same,Kd,[3],115 ± 22.3 nM
same,Kd,[4],80 ± 23.4 nM
